According to a protein production outcome set (Wang et al. 2014):

Experiment: label from the status in PepcDB records

Sequence | protein production
MNIVYLLMLSLILFSIGLYGISTSNVGIKMLISLEIIINSAILAGVSISSFYFSTGVLIFVLFAIAIGVIESAVGIAILTMVYKKYGRITISLLKEIKW | failed
MHTLEQLRAGALTGIQALKLSENLTEVPAEVFQLADTLEILDLSGNRLHSLPQEMACLTRLRILFLSDNDFTIFPEVLKELKQLDMLGIKANNIQVIAEDAIPVSLRWLILTDNCIEALPVSIGRCTKLQKVMLAGNQLSGLPDELAACRNIELLRISANNMHTFPEVVKQLPRLAWLAYSSNPFQVNRSSFNALPVIAWENVALMEQLGAGASGIIYKARLNTGKSPEDVAVKVFKGAVTSDGLPEDEMTACMQAGRNSHLVSVLGVIGGHPEGMHGLVMELIPAEYKNLGRPPSFVTCTRDTFAAGTRFTAQQMLLILKGVAEAAKQLHDNGIMHGDLYAHNTLINEKYHSLFGDFGAATLYDKNNRDEAFFLERLDVRAFGCLADDLLQYSVCTKEDEWCLETLKRLSAGCMNEEPDKRPAFNTIVYELQLLQNTHLEHHHHHH | not failed
MNPKVKGIIAILVSAIGFSFMSVFFRLAGDLPVFQKSLARNLVAMFIPLYFIYKYKQPLFGKLSSQPLLISRSTLGLIGVLLNIYAIDHMILSDADTLMKLNPFWTILLSLIFLNEKVRNYQIIAMVIAIFGMLFVVKPEFSSSMIPAIGGLFSGIFAASAYTCVRALSTREAPYTIVFYFSFFSIVVLIPFTIFTFEPMSMMQVIYLIGAGLAAAAGQIGITLAYSYAPAKDISIFTYASIIFTAFFGFILFGESPDFYAILGYVIIIASSYYMFEKARRQPLSIQKEEQKPKT | failed
MQPLVSTVLVPSQGIPLCCNEICLKSLQKEVAMPLKDLLIALVVIVAWGVNFVVIKVGLDGLPPMLLGALRFLLVAFPAILLVRRPKLPWRWLIAYGATISLGQFAFLFQAMYSGMPPGLASLILQSQAFFTLGFAALFLGERLRLASVLGLLVAAGGLALIGSEDGGHVPMLALVLTLCGGAMWGLGNIITRRFGSVDLVALVIWGGLIPPLPFLALSWWLEGPERIGHALANISWSSVLALAYLAFVATMLGYSLWSKLLSRHPAGKVAPFSLLVPVIGLSSSALLLGERLTATQGWGALLVMAGLLVNVFGARIGQRLRAANA | failed
MVSDWLLLAPPAAFITAALALFVVDAISSDETSGWLLSGVTTAGGLAAAAIAGVLLLSETAAGGVELFGGQLVVDGMSLLFTFIFGSVTALVAVASLDYIRDLPHKAEYYLLISLAATGMSLMASANSLVVVFISLELASLPSYALVAYLKNNRGSVEAGLKYFLIGALSSGIMLYGISLIYATTGSFLLGDIAASVGEAASTHPGVFGVGLLMVIGGFAFKTASVPFHFWAPDAYEGAPAPVAAFLSSASKAAGFVIAFRVLLVGFPIQEVAATVDWVLLFQILAVVTMTVGNFAAATQSNVKRMLAYSSIGHAGYVLIGLAALTNVGGPTAEATVLGASMLHLLVYGFMNTGAFLFVAMVEHWDVGRTFEDYNGLAREAPLACVAMTIFLFSLAGLPVGGGFLSKYYLVVGAVGTGVWWLAVVLAINSALSLYYYSRVVKAMWIESPAESLTIERYPTALYAAVMAAAAVTVLLLPGLFVFDGAAFDAAAALL | failed
MPDFVNLWIYLSSTPLFGLTATLTVYLSAHAMYLRLGQVPLANPVLWSMVVLAAGLLAFGVPYPTYFAGAQFIHFLLGPAVVALAWPLWMRRAELRRRWARLLWAALFGGAVACASAVLLGWAVGLPRDIILSLAPKSVTAPVAMGLSETLGGIPALSAVFAALTGLVGALTGKYLFDLLGAVRGRQDWADRGFALGTVSHGIGAARAIQVNADAGAYAGLALGLQVILASLLIPVAFRLAAGLGGS | failed
MIDSIRVEGFRGLKELELSSLRRINVIVGRNNSGKSTLLEALSLFLGSSDPGTFGNVLHEILIWRGWYGIQTVDDLFYNGGDSFSISSTGKTLEALNSKHSLEFKLNGEPFYKIDRESIRRLASQAVLLARFSPKENFEFLTPLTFRRFGYAESLYSYAYERKVVKDSIKVLNEAYPEVEGFSPLLKEDNWVLYVETKYGVYPYYLMGEGFKSAMIISFLSSLLRDGVLLIDSAEAFHHPKSLKVMIQTLVRGSEKNNVQVFLTTHSLELLDLMLEMGRDGFVIYMKNVEGRIEVESIEFQRASELRESIGVDLRGFLEHHHHHH | not failed
MILKKEYSYESLRKKGAKKKKNFLCLQKYAMIYLVIRRYPYMSFGQKFKHFLAPLDEDDILEVEQDAEEEDAQTISQYEQQRSRMNKLPNDTKMVLFEPRSFDEADEIARRLKENKAAVVNLHKLQREYAQRTIDFLTGVIFALDGSIQKIGHNVILCTPNNVPVQGQITLDSGEDE | failed
MSLPHLSSGEVASVLPLGKQLTQTPSAALFKEHRLEVMRMVLPAGKQVGSHSVAGPSTIQCLEGEVEIGVDGAQRRLHQGDLLYLGAGAAHDVNAITNTSLLVTVVLVDRGGS | not failed
MTSAQAVSEGTGEAAAQAISLRTWVAVLGSVVGCFMAGMNVHVTNASLPDVRGSLGATFEEGSWITTAYLVAEIIIIPMTGWLVSVFSMRRVLMVGTAGFVLFSIACSLAPNIHSLIFARVLQGAFGGVLIPLSFQLIVTELPAARHPMGMALFAVANNVAQAAGPSLGGWLTDAYSWRWIFYLQVPPGLLLLAAIGWSVRPQPMVLAKLRQGDWGGIASMAVGLSALQIMLEEGGRYDWFASSFISHCAILATVGLLAFVAIELRREQPLINLRLLGRYNFGIASLMQFTFGAVVFGVVFLVPNYFAQIHGYNARQIGLMMIPYGLIQFVMSFATPRLMRWTSARTIIIAGFAITGIGCLMNIHLNPDASVNVIVPSLVVRGIGQSLVVVALGVMAIQGLEKDQVGSASGLFSMVRNVGGAIGIALSSQIVVEREKLHAQRIGESVSLFAQATQERLVELVRLLAQAPVEYATALHSAALAPLRQQALGMVDKVLHRDALLLAYSDAFLLAGLAMLLCVVAGVLLRRA | failed
MPGLPEVAPGDDLAKLIAAVEPGLVDGDVLLVTSKIVSKAEGRIVRADDREAAIDAETVRVVARRGALRIVENRQGLVMAAAGVDASNTPSGTVLLLPEDPDASARAIRDGLRDTLGVDVGVVVTDTFGRPWRTGLTDVAIGAAGVRVLDDLRGGTDAYGNPLSATVVATADELAAAGDLVKGKAAGLPVAVVRGLPHVIAGDDEAGARAMVRGGRDDMFRLGTSEAVREAVTQRRTVRAFTDEPVDPGAVRRAVAAAVTAPAPHHTTPWRFVLLESAESRTRLLDAMRDAWIADLRGDRKTEESIAKRVRRGDVLRNAPYLVVPCMVMDGSHSYGDARRDAAEREMFVVATGAGVQNFLVALAGERLGSAWVSSTMFCRDVVRRALGLPESWEPMGAVAVGHAAEEPRDRPARDAGAFIEVRLEHHHHHH | not failed
MPQPGLTTPDNDALPWQTTLLLALQHVLVVAATPITSVFLIAKALHFTDTVTASVLSATFLMCGLGAILQSLGVKGVGARLPFIMVPGGAPIAIFVAIALQTNIQTAIGAVILTSLFYFIALPIFRRCLHHFPPFIIGIMLLMVSINLIRLYGGLIIGQPGSADFAHPTSIILSLGTILITLIFALAFSGILRQLAVMFGLLAGTLLGMALGSTDFSGVSHGPLFSFPQLLPFGWPIFDLSASLPLLIYAVISMAEATGQTIATAEIVNSTQNVQQAIPRTIRGDAVMSLLGGIFGTSLIITSGENIGVVRTTNVKSRFVTAAAGGLLILIAIFAPLVRLATCLPGSVVCGTAVIVFSIIGVIGIDMIAREPLHTPGKTYALAMGLAMGMLPILVPGLYQNFPAGVQMVFGNGMAAGTLTAILVNSLFNWSEKRTQARVKS | failed
MDAMEFFRQSAGQWRSQRTTHHLAFRRAENGDSSISVEALEKDDPRVIEICTMHEVDPATAIGGAYVSWQGSMEWDRDAEGHSGTTVFALVPDDASGRSGQLLRERGYAEIVPVIGRFELDENNNLNLVTDYETMSAVEQFWFMGPSLRLRASTVTRFGGLSTAAFCAEVRQTEAAADSEPLKADQLYSSLGW | failed
